In patent publication US12358963B2, “Regenerative polypeptides and uses thereof” (Juvena Therapeutics, Inc., priority 2019, dated 2025):

Assays:
[1] = test system: mouse myoblast cell lines; experiment: Myogenic gene RNA expression in mouse myoblasts by real-time qPCR; assay type: cell-based; conditions: 48h in fusion media
Experimental: (§1) Myogenic gene RNA expression (fold change to FM) in response to vehicle (FM) in mouse myoblast cell lines monitored by real-time qPCR. Myoblast were cultured 48h in fusion media. Mean±SD. n=3. (Y,Z) Differential induction of myogenic gene expression by FGF17 in human myoblast myoblasts. Quantitation table of myogenic gene RNA expression (fold change to FM-fusion media (DMEM+2% horse serum)) in response to FM or rh-FGF17 in aged human myoblast cell lines by real-time qPCR. Myoblast were cultured (B) 48 hours or (C) 72 hours in FM. Mean∓SD. n=3.
(§2) RNA was isolated from each well (RNeasy Mini Kit, Qiagen) and cDNA was obtained by reverse-transcription (High Capacity Reverse Transcription Kit, Thermo Fisher Scientific). Real-time quantitative PCR was performed using QuantStudio3 (Thermo Fisher).

[2] = test system: aged human myoblast cell lines; experiment: Myogenic gene RNA expression in aged human myoblasts by real-time qPCR; assay type: cell-based
Experimental: as §1, §2
Aged human myoblasts were cultured in well plates. […] Cells that had been cultured with IGF2 had increases in levels of MYOG at 48 hours and levels of MYOD at 72 hours.

12 weeks old mice = experiment: Dexamethasone induced muscle atrophy, FGF17; assay type: in vivo, mouse; conditions: Dexamethasone 25 mg/kg i.p. 20 days; FGF17 0.5 mg/kg subcutaneous
Experimental: FIG. 17A) Experiment overview and groups. […] Muscle weight was assessed on Day 21. Forelimb grip strength and both limb grip strength were measured on Day 7, 13 and 21 FIG. 17B) TAs muscle weight over initial body weight shown as the percentage change from vehicle. ***p=0.0005, *p=0.0499. […] One way Anova corrected for multiple comparisons using Tukey method was used to compare data.
The experimental design is C57BL/6J male mice with daily administration of Vehicle, N=7; dexamethasone (25 mg/kg i.p.), N=6, or dexamethasone+treatment article, N=6, for 20 days. This design can be used to test any single factor identified and validated in in vitro assays or complex mixtures of 2 or more factors.
On day 21, animals are sacrificed, and animal weight recorded. 0.5 ml of blood is collected via cardiac puncture and processed to plasma for storage of plasma samples at −80° C. The animals are perfused with 1×PBS. After carefully dissecting the skin from the GA/TA muscles of each hind leg, photos are taken, followed by excision of exclusively the GA or TA muscle, weighing the muscles, then flash freezing in isopentane at −80 C.

human myoblast = experiment: Human myoblast proliferation (nuclei counts, EdU counts); assay type: cell-based; conditions: 72h; for Nuclei Counts: vehicle 2083.5
Experimental: (§3) FIG. 5A) Bar graph quantitation of % EdU+ mouse myoblast in response to BMP7. Myoblast were cultured 48h in the presence of BMP7 at indicated dose. Fresh media and BMP7 was added every 24h, followed by 2 hour EdU pulse and fixation. Mean∓S.D. Significant p-values (Vehicle˜BMP7 0.025 ug/mL: 1.21E-07, Vehicle˜BMP7 0.075 ug/mL: 8.05E-07, Vehicle˜BMP7 0.2255 ug/mL: 3.37E-03, Vehicle˜BMP7 0.9 ug/mL: 4.99E-02). FIG. 5B) Bar graph quantitation of % EdU+ human myoblast (person) in response to BMP7. Myoblast were cultured 72h in the presence of BMP7 at indicated dose. Cells were pulsed with EdU for 4 hours before fixation. Mean∓S.D. Significant p-values (Vehicle˜BMP7 1.56 ng/mL: 0.04). (*p<0.05 by Welch's One-Tailed T-test, n=2)
Bar graph of total EdU+ mouse myoblast cells compared per condition. Myoblast were cultured 48h in the presence of indicated factors. Fresh media and factors were added every 24h, followed by 2 hour EdU pulse and fixation. Mean∓Standard Deviation(SD) Table quantitation of EdU counts per field and p-values for mouse assay (*p<0.05 by Student's One-Tailed T-Test of increased activity, n=3-6, Synergy values <1 are evidence of effect). Bar graph of total EdU+ human myoblast cells per condition. Myoblast were cultured 72h in the presence of indicated factors, followed by 4 hour EdU pulse and fixation. Fresh media and factors were added every 24h. Mean∓Standard Deviation(SD). Table quantitation of +EdU counts and p-values for human assay. (*p<0.05 by Student's One-Tailed T-Test of increased activity, n=3-6, Synergy values <1 are evidence of effect)

human chondrocyte = experiment: Human chondrocyte proliferation (% EdU+); assay type: cell-based; conditions: 48h, vehicle 0.744
Experimental: Chondrocytes were cultured for 48h in the presence of FGF17 at indicated dose. FGF18 was added at 0.1 ug/mL as a positive control. Fresh media and FGF17 was added every 24h. Table of % EdU+ chondrocyte and p-values depicted. Mean∓S.D. (*p<0.05 by Tukey Honest Significant Difference T-test, n=2-3)

mouse myoblast cells = experiment: Mouse myoblast proliferation assay (EdU); assay type: cell-based; conditions: for % EdU / Ave. + EdU Count: 48h; for Ave. + EdU Count: FM 165
Experimental: as §3
FIG. 6A) Bar graph of % EdU+ mouse myoblast cells compared to vehicle. Mouse myoblast were cultured 48h in the presence of indicated factors, followed by a 2 hour EdU pulse prior to fixation. Mean∓S.D. Significant p-values (FM˜BMP7: 0.008 ug/mL: 3.17E-02, FM˜Leucine: 300 uM BMP7: 0.008 ug/mL: 2.77E-03, FM˜Leucine: 100 uM BMP7: 0.008 ug/mL: 3.72E-05, FM˜Leucine: 900 uM BMP7: 0.008 ug/mL: 2.52E-03). (*p<0.05 by One-Way ANOVA Tukey Honest Significant Difference, n=2-6)
FIG. 7A: Bar graph of % EdU+ mouse myoblast cells compared to vehicle. Mouse myoblast were cultured 48h in the presence of indicated factors. EdU pulse and fixation. Mean∓S.D. (*p<0.05 by Student's One-Tailed T-Test of increased activity, n=2-6)
FIG. 10A) The suspension CHO cells were transiently transfected with either the empty control plasmid or the FGF17-hFcm encoding plasmid. After four days, the culture supernatants were collected and added into the culture of mouse myoblast cells for 48 hours, followed by a 2 hour EdU pulse prior to fixation. […] FIG. 10B) The suspension CHO cells were transiently transfected with the FGF17-hFcm encoding plasmid. After four days, the culture supernatants were collected and FGF17-hFcm was affinity-purified by Protein A membrane column. The purified FGF17-hFcm was added into the culture of mouse myoblast cells for 48 hours, followed by a 2 hour EdU pulse and fixation.
(§4) FIG. 11A: SDS-PAGE of culture supernatants from CHO cells transiently transfected with FGF17-hFcm or its mutants encoding plasmids (FGF17d181-216-hFcm, FGF17d204-216-hFcm, FGF17R204QK207Q-hFcm). The expressed FGF17-hFcm proteins and the mutant proteins were indicated by the white arrowheads. FIG. 11B) The culture supernatants from CHO cells transiently transfected with different FGF17 encoding plasmids were added into the culture of mouse myoblast cells for 48 hours followed by 2 hour EdU pulse and fixation.
as §4, with “12A)” for “11A:”, “(FGF17d197-216-hFcm, FGF17K191AK193AS200A-hFcm).” for “(FGF17d181-216-hFcm, FGF17d204-216-hFcm, FGF17R204QK207Q-hFcm).”, “12B)” for “11B)”, “hours,” for “hours”
(§5) FIG. 14A: Bar graph of % EdU+ mouse myoblast cells compared to vehicle. Myoblast were cultured 48h in the presence of indicated factors. Fresh media and factors were added every 24h, followed by 2 hour EdU pulse and fixation. Mean∓S.D. Table quantitation of % EdU and p-values (*p<0.05 by One-Way ANOVA Tukey Honest Significant Difference, n=2-6)
as §5, with “15A:” for “14A:”, “p-values shown.” for “p-values”, “Student's One-Tailed T-Test of increased activity,” for “One-Way ANOVA Tukey Honest Significant Difference,”
Bar graph of total EdU+ mouse myoblast cells compared per condition. Myoblast were cultured 48h in the presence of indicated factors. […]

78 weeks old mice = experiment: BaCl2 muscle injury in old mice, intramuscular FGF17; assay type: in vivo, mouse; conditions: FGF17 500 ng/mL intramuscular 2h and 48h after BaCl2 injury
Experimental: FIG. 16A) Experiment overview. Intramuscular injection of 1.2% of BaCl2 (7 ul/TA) was used to generate chemical injury in the TAs of 78 weeks old mice. FGF17 (500 ng/mL) was administered via intramuscular injection after 2h and 48h of muscle injury. FIG. 16B) Quantification of the regenerative index calculated as the number of newly regenerated fibers per mm 2 of injury area. Regenerated fibers were identified as fibers with central nuclei,****p<0.0001 (unpaired t-test). FIG. 16C) Histogram showing the fibrotic index calculated as the percentage of the fibrotic area. *p=0.0186 (unpaired t-test).

DM1 human myoblast = experiment: Gene expression fold change in DM1 human myoblast; assay type: cell-based; conditions: 48h; BMP7 50 ng/mL, Butyrate 100 nM, IGF2 200 ng/mL; FM 1.000

B1: FGF17: FGF17 polypeptide, FGFR agonist (protein, listed as Homo sapiens)
chain: TQGENHPSPNFNQYVRDQGAMTDQLSRRQIREYQLYSRTSGKHVQVTGRRISATAEDGNKFAKLIVETDTFGSRVRIKGAESEKYICMNKRGKLIGKPSGKSKDCVFTEIVLENNYTAFQNARHEGWFMAFTRQGRPRQASRSRQNQREAHFIKRLYQGQLPFPNHAEKQKQFEFVGSAPTRRTKRTRRPQPLT
Myf5 RNA expression (fold change to FM), Mean ([1]; FM 1.002): 1.376 | Myod1 RNA expression (fold change to FM), Mean ([1]; FM 1.002): 1.230 | Pax7 RNA expression (fold change to FM), Mean ([1]; FM 1.011): 6.118 | MYOD1 RNA expression (fold change to FM) ([2]; 48 hr, FM 1.001): 0.604 | MYOG RNA expression (fold change to FM) ([2]; 48 hr, FM 1.013): 2.353 | MYF5 RNA expression (fold change to FM) ([2]; 48 hr, FM 1.04): 1.922 | MYF5 RNA expression (fold change to FM) ([2]; 72 hr, FM 1.023): 0.499 | MYOD1 RNA expression (fold change to FM) ([2]; 72 hr, FM 1.055): 1.627 | MYOG RNA expression (fold change to FM) ([2]; 72 hr, FM 1.092): 13.124 | Muscle atrophy (muscle weight, forelimb and both limb force) (12 weeks old mice): Protects Against Dexamethasone Induced Muscle Atrophy | Ave. + EdU Counts (human myoblast; FGF17 0.1 ug/mL, FM 205): 349 | % EdU (human chondrocyte; 0.1 ug/mL): 4.675% | % EdU (human chondrocyte; 0.20 ug/mL): 9.085% | % EdU (human chondrocyte; 0.40 ug/mL): 16.773% | % EdU (mouse myoblast cells; FGF17 0.0062 ug/mL, vehicle 3.14): 4.81% | Ave. + EdU Count (mouse myoblast cells; FGF17 0.01 ug/mL): 476 | % EdU (mouse myoblast cells; FGF17 0.0125 ug/mL, vehicle 3.14): 3.02% | % Edu (mouse myoblast cells; FGF17 0.025 ug/mL, 48h (HA experiment), FM 11.162): 17.870% | % EdU (mouse myoblast cells; FGF17 0.025 ug/mL, vehicle 3.14): 3.85% | Ave. + EdU Count (mouse myoblast cells; FGF17 0.1 ug/mL): 1618 | Fibrotic index (78 weeks old mice): reducing fibrosis | Muscle regeneration (regenerative index) (78 weeks old mice): Promoted the Regeneration of Muscle

B2: BMP7: BMP7 polypeptide, BMP receptor agonist (protein, UniProt P18075 293-431, looked up)
Bone morphogenetic protein 7: STGSKQRSQNRSKTPKNQEALRMANVAENSSSDQRQACKKHELYVSFRDLGWQDWIIAPEGYAAYYCEGECAFPLNSYMNATNHAIVQTLVHFINPETVPKPCCAPTQLNAISVLYFDDSSNVILKKYRNMVVRACGCH
Nuclei Counts (human myoblast; BMP7 0.78 ng/mL, donor): 2144.5 | Nuclei Counts (human myoblast; BMP7 1.56 ng/mL): 2552.5 | Nuclei Counts (human myoblast; BMP7 3.12 ng/mL): 2408 | Nuclei Counts (human myoblast; BMP7 6.25 ng/mL): 2422.5 | Nuclei Counts (human myoblast; BMP7 12.5 ng/mL): 2706 | Nuclei Counts (human myoblast; BMP7 25 ng/mL): 2509 | MYF5 expression fold change compared to FM (DM1 human myoblast): 0.709 | MYOD1 expression fold change compared to FM (DM1 human myoblast): 0.709 | MYOG expression fold change compared to FM (DM1 human myoblast): 0.361 | % EdU (mouse myoblast cells; BMP7 0.025 ug/mL, vehicle 10.56): 18.08% | % EdU (mouse myoblast cells; BMP7 0.075 ug/mL, vehicle 10.56): 17.53% | % EdU (mouse myoblast cells; BMP7 0.2255 ug/mL, vehicle 10.56): 14.93% | % EdU (mouse myoblast cells; BMP7 0.45 ug/mL, vehicle 10.56): 12.93% | % EdU (mouse myoblast cells; BMP7 0.9 ug/mL, vehicle 10.56): 13.91% | % EdU (mouse myoblast cells; BMP7 1.8 ug/mL, vehicle 10.56): 10.37%

B3: FGF18: FGF18 added at 0.1 ug/mL as a positive control (protein, UniProt O76093 28-207, looked up)
Fibroblast growth factor 18: EENVDFRIHVENQTRARDDVSRKQLRLYQLYSRTSGKHIQVLGRRISARGEDGDKYAQLLVETDTFGSQVRIKGKETEFYLCMNRKGKLVGKPDGTSKECVFIEKVLENNYTALMSAKYSGWYVGFTKKGRPRKGPKTRENQQDVHFMKRYPKGQPELQKPFKYTTVTKRSRRIRPTHPA
% EdU (human chondrocyte; 0.1 ug/mL): 6.039%
